Measurements: publication PMC5730196

Columns and labels:
[1] = target: DREP1 CIDE domain (DFF-related protein 1), wild type (Drosophila melanogaster); assay: SEC; purified proteins alone or mixed, Superdex 200 HR 10/30 in 20 mM Tris-HCl pH 8.0, 150 mM NaCl; peak fractions on SDS-PAGE
[2] = target: DREP3 CIDE domain (DFF-related protein 3), wild type (Drosophila melanogaster); assay: as above

Substance | stoichiometry N [1] | stoichiometry N [2]
DREP1 CIDE domain (DFF-related protein 1), wild type (domain or fragment) | 2 | 
DREP3 CIDE domain (DFF-related protein 3), wild type (domain or fragment) |  | 2
